Positions of bridges follow the written chain, without caps; N, C: chain ends. Non-standard residues stand in square brackets, D forms with d. No end group written: not given here. *: point of attachment. Acetyl(2-(4-imidazolyl)) = O=C(Cc1c[nH]cn1)*; Aib = CC(C)(N)C(=O)O
T1: human GIP receptor (human, UniProt P48546 22-466)
T1 sequence (looked up): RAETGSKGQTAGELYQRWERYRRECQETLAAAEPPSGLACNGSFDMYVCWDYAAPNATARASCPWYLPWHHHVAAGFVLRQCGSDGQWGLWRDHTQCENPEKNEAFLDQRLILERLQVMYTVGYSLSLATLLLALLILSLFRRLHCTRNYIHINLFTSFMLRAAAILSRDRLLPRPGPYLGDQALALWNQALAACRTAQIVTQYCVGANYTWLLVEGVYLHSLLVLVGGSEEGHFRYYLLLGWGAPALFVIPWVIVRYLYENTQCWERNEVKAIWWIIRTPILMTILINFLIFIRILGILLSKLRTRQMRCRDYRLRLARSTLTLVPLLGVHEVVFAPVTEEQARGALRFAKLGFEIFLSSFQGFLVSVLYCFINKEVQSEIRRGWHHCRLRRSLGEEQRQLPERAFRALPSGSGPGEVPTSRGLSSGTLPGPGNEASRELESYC


Legend:
Assay in all cases: cell-based or functional assay
human GCG receptor = human GCG receptor (human, UniProt P47871 26-477)
human GIP receptor = molecular target: T1, human GIP receptor
human GLP-1 receptor = human GLP-1 receptor (human, UniProt P43220 24-463)

human GCG receptor, sequence (P47871 26-477): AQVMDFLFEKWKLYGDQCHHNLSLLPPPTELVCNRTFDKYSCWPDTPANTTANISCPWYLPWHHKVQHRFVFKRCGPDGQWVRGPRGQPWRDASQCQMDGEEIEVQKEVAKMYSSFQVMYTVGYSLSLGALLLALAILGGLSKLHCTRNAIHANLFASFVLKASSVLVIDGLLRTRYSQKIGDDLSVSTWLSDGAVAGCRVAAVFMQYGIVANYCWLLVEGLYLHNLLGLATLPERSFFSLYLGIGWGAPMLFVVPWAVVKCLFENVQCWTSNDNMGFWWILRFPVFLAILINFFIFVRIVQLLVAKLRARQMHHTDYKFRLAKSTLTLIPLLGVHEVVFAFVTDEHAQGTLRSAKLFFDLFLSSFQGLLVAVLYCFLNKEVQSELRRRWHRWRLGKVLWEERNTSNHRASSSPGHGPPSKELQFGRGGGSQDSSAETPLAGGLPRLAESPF

Binder | In vitro activity relative to native peptide (%), vs. Glucagon (cAMP EC50) (human GCG receptor) | In vitro activity relative to native peptide (%), vs. GIP (cAMP EC50) (human GIP receptor) | In vitro activity relative to native peptide (%), vs. GLP-1 (cAMP EC50) (human GLP-1 receptor)
H[Aib]QGTFTSDCSKYLDSRAAQDFVQWLLDGGPSSGAPPPS [trigonal agonist of SEQ ID NO: 26] | 0.2% | < 0.1% | 64.5%
H[Aib]QGTFTSDYSKYLDERACQDFVQWLLDQGGPSSGAPPPS [trigonal agonist of SEQ ID NO: 27] | 0.8% | 0.9% | 83.1%
H[Aib]QGTFTSDYSKYLDEKRAQEFVCWLLAQKGKKNDWKHNIT [trigonal agonist of SEQ ID NO: 28] | 1.6% | < 0.1% | 17.2%
H[Aib]QGTFTSDCSKYLDERAAQDFVQWLLDGGPSSGAPPPS [trigonal agonist of SEQ ID NO: 25] | 0.1% | < 0.1% | 82.6%
H[Aib]QGTFTSDYSKYLDEKACKDFVQWLLDGGPSSGAPPPS (bridge 16-20) [trigonal agonist of SEQ ID NO: 32] | 1.7% | 8.8% | 151%
H[Aib]QGTFTSDYSKYLDEKAAKEFVQWLLNTC (bridge 16-20) [trigonal agonist of SEQ ID NO: 29] | 6% | < 0.1% | 38.5%
Y[Aib]QGTFTSDYSKYLDECRAKEFVQWLLDHHPSSGQPPPS (bridge 16-20) [trigonal agonist of SEQ ID NO: 21] | 267% | 22.7% | 17.8%
{Acetyl(2-(4-imidazolyl))}-GQGTFTSDLSIQYEEEAQQDFVEWLKDTGPSSGAPPPSHG [trigonal agonist of SEQ ID NO: 20] | < 0.1% | < 0.1% | < 0.1%
Y[Aib]QGTFTSDYSKYLDECRAKEFVQWLLAQKGKKNDWKHNIT (bridge 16-20) [trigonal agonist of SEQ ID NO: 23] | 9.3% | < 0.1% | 4.01%
Y[Aib]QGTFTSDYSKYLDECRAKEFVQWLKNGGPSSGAPPPS (bridge 16-20) [trigonal agonist of SEQ ID NO: 24] | 9.3% | < 0.1% | 41.2%
H[Aib]QGTFTSDYSKYLDEKACKEFVQWLLAQ (bridge 16-20) [trigonal agonist of SEQ ID NO: 31] | 2.2% | 2.4% | 135%
H[Aib]QGTFTSDYSIAMDEIHQKDFVNWLLAQKC (bridge 16-20) [trigonal agonist of SEQ ID NO: 33] | < 0.1% | 10.4% | 24.5%
Y[Aib]QGTFTSDYSKCLDEKRAKEFVQWLLDHHPSSGQPPPS (bridge 16-20) [trigonal agonist of SEQ ID NO: 22] | 140% | 59.7% | 20.1%
H[Aib]QGTFTSDYSKYLDEKAQKEFVQWLLDTC (bridge 16-20) [trigonal agonist of SEQ ID NO: 30] | 0.7% | 0.8% | 142%
H[Aib]QGTFTSDVSSYLLGQAAKQFIAWLVKGGGPSSGAPPPSC [trigonal agonist of SEQ ID NO: 3] | < 0.1% | < 0.1% | 1.8%
